Measured values reported in the nanobody polyreactivity screen of Harvey et al. (2022).

Assay: yeast display, Sf9 membrane polyspecificity reagent, FACS + sequencing; frameworks hold sequencing errors
Summary of the method: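 Sorting gates, low and high (top ~1%), were placed on anti-HA fluorescence to track expression and on streptavidin fluorescence to track reagent binding. A clone's polyreactivity label is taken from the gate it came out of. The reagent was 10% biotinylated, detergent-solubilized Sf9 membrane, applied for 1 hour at 4 °C to galactose-induced yeast display cells.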

Sequence	polyreactivity (PSR sort gate)
QVQLVESGGGLVQAGGSLRLSCAASGRTFLRNAMGWYRQAPGKEREFVAAISTRDGRTYYADSVKGRFTISRDNAKNTVYLQMNSLKPEDTAVYYCNAVNTAGYYYYYAFFWDYDYWGQGTQVTVSS	high polyreactivity
QFQLVESGGGLVQAGGSLRLSCAASGRTFIYYSMGWYRQAPGKERELVAAITRSGGSTNYADSVKGRFTISRDNSKNTVYIQMNSLKPEDTAVYYCAARFYGRRCIYGYWGQGTQVTVSS	high polyreactivity
QVQLVESGGGLVQAGGSLRLSCAASGFIFRYYARGWYRQAPGKERELVAAITSTGRTYYADSVKGRFTISRDNAKNTVYLQMNSLKPEDTAVYYCAKAWLRWGEDYWGQGTQVTVSS	low polyreactivity
QVQLVESGGGLVQAGGSLRLSCAASGRIFYRYAMGWYRQAPGKERELVATITSGGGTHYADSVKGRFTISRDNAKNTVYLQMNSLKPEDTAVYYCAAVQWYGYPYYSWGQGTQVTVSS	low polyreactivity
QVQLVESGGGLVQAGGSLRLSCAASGSIFYGYAMGWYRQAPGKERELVAAISGGGRTNYADSVKGRFTISRDNAKNTVYLQMNSLKPEDTAVYYCARRSQRGIYSMYYWGQGTQVTVSS	low polyreactivity
QVQLVESGGGLVQAGGSLRLSCAASGRILQWYTMGWYRQAPGKERELVAAISGGGGRTYYADSVKGRFTNSRDIAKNTVYLQMNSLKPEDTAVYYCAKRGTGVYRVDYGYWGQGTQVTVSS	high polyreactivity
QVQLVESGGGLVQAGGSLRLSCAATGIIFRDYGKGWYRHAPGKQREFVATITYSGGGTYYADSVKGRFTISRDNAKNTVYLQMNSLKPEDTAVYYCAAYPFYYDLAYDYWGQGTQVTVSS	low polyreactivity
QVQLVESGGGLVQAGGSLRISCAASGSTFDGYAMGWYRQAPGKERELVAAITRGGSTNYADSVKGRFTISRDNAKNTVYLQMNSLKPEDTAVYYCNARLWKRYPYDGYGYWGQGTQVTVSS	high polyreactivity
QVQLLESGGGLVQAGGSLRLSCAASGSTFDRNTMGWYRQAPGTVRELVAAITWSSGSTYYADSVKGRFTISRDNAKNTVYLQMNSLKPEDTAVYYCAADRIRYRSRHKYGYWVQGTQVTVSS	low polyreactivity
QVQLVESGGGLVQAGGSLRLSCAASGSTLISYTMGWYRQAPGKERELVAAITSAVTTYYADSVKGRFTISRDNAKNTVYLQMNSLIPEDTAVYDCNAVPDTRSGELDYWGQGTQVTVSS	low polyreactivity
QVQLVESGGGLVQAGGSLRLSCAASGSIFVLYAMGWYRKAPGKERELVAAISRGVGGTNYADSVKGRFTISRDNAKITVYLQMNSLKPEDTAVYYCAAQTLRWSHYYYWGQGTQVTVSS	high polyreactivity
QVQLVESGGGLVQAGGSLRLSCAASGFAFSYYAMGWYIPAPGKEREFVASIDWSGGSTYYADSVKGRFTISRDNAKNTVYLQMNSLKPEDTAVYYCAAELDYFPGYDYWGQGTQVTVSS	low polyreactivity
QVQLVESGGGLVQAGGSLRLSCAASGIILRYYAMGWYRQAPGKERELVAAITRGGSTNYADSVKGRFTISRDNAKNTVYLQMNSLKPEDTAVYYCAADVVFWFSNVAWGDFGYWGQGTQVTVSS	low polyreactivity
QVQLVESGGGLVQAGGSLRLSCAASGYTFGYNVMGWYRQAPGKERELVAVISSGGTTYYADSVKGRFTISRDNAKNTVYLQMNSLKPEDTAVYYCNKRSAYKYRTHYGYYYWGQGTQVTVSS	high polyreactivity
QVQLVESGGGLVQAGGSLRLSCAASVSLSGYYAMGWYRTGPGKERELVASIRYTGALTYYADTVKGRFTISRDNAKNTVYLQMNSLKPEDTAGYYCAADVKRDRVWGGDYWGQGTQVTVSS	low polyreactivity
QVHLQESGGGLVQAGGSLRLSCAASRTIFRISDMGSYRQAPGKEREFVAAITYGANTYYADSGKGRFTISRDNAKNSVYLQMNSLKADDTAVYYCAVPPVKETILDYWGQGTQVNVSS	low polyreactivity
QVQLVESGGGLVQAGGSLRLTCAASGNIFGIYTMGWYRQAPGKEREFFAVISLSGTSTYYADSVKGRFTISRDNAKNTVYLQMKSLKPEDTAVYYCNARTPHNKGRRRAYDYWGQATQVTVSS	high polyreactivity
QDQLVESGGCLVQAGGSLRLSCAASGSIFTDNVMGWYRQATGKERELVAAITSTGGNTYYADSVKGRFTISRDNAKNTVYLQMNSLKREDTAVYYCNKDVARYPYGKFDYWGQGTQVTVSS	low polyreactivity
QVQLVDSGGGLVQAGGSLRLSCAASGSIFRGYAMGWYRQAPGKERELVAAIRRRAGTTYYADSVKARFTISRDNAKNTVYLQMNSLKPEDTAVYYCAVERYHSGDDYLGQGTQVTVSS	high polyreactivity
QVQLVESGGGLVQAGGSLRLSCAASGSTFDSYAMGWYRQAPGKERELVAAITNGGSTYYADSVKGRFTISRDNAKNTVYLQMNSLKPEDTAVYYCATDDYLLDYLYDYWGQGTQVTVSS	low polyreactivity
QEQLQESGGGLVQAGGSLRLSCAASGTISYAGPMGWYRQAPGKEREFVAGIGVGSNTNYADSVKGRYTIIRDNAKNTVYLQMNSLKPEDTAVYYCAVGGYAPLGRPYWGQGTQVTVSS	low polyreactivity
QVQLVESGGGLVLAGGSLRLSCAASGYTFTIYAMGWYIQGPGKERELVSAITGRGGRTNYADSVKGRFTISRDNAKNTVYLQMNSLKPEDTAVYYCNAVTKVVYHGPYGYDYWGQGTQVTVSS	high polyreactivity

Sequence	polyreactivity (PSR sort gate)
QVQLVESGGGLVQAGGSLRLSCAASGRTFKWYAMGLYRQAPGKEREFVAGISRGAGRTYYADSVKGRFTISRDNAKNTVYLQMNSLKPEDTAVYYCAAVPSYHSTSPFYYWGQGTQVTVSS	high polyreactivity
QVQLVESGGGLVQAGGSLRLTCAASGSTFHSNAMGWYREAPGKERELVAAISQGGGRTYYADSVKGRFTISRDNAKNTVYLQMNSLKPEDTAVYYCNRRTRGLIDGGMDYWGQGTQVTLSS	low polyreactivity
QVQLVESGRGLVQAGGSLRLSCAATGLTFNQYAMGWYRQAPGKERELVAAITRVGRTYYADSVKGRFTISRDNAKNSVYLQMNSLKPEDTAVYYWGYPDVAERRGSYYWGQGTQVTVSS	high polyreactivity
QVQLQESAGGLVQAGGSLSLSCAASGSISRYYDMGWYRQAPGKEREFVAGISGGASTYYADSVKGRFTISRDNAKNTVYLQMNSLKPEDTAVYYCAADTGVYQYHSYWGQGTQVTVSS	low polyreactivity
QVQLVESGGGLDQAGGSLRLSCAASGSTFVGYAMGWYRQAPGKERELVAAISGSGTSTYYADSVKGRFTISRDNAKNTVYLQMNSLKPEDTAVYYCNADPIFVYSSYNYWGQGTQVTVSS	low polyreactivity
QVQLVESGGGLVQAGGSLRLSCAASGSTFYRNAMGWYRQAPGKERELVAVITERGGNTYYADSVKGRFTISRDNAKNTVYLQMNSLKPEDTAVYYCNKQGFVDRGRYRYYWGQGTQVTVSS	high polyreactivity
QVQLVESGGGLVQAGGSLRLSSAASGSIFYVYAMGWYRQAPGKERELVAAISGGGGSTYYADSVKGRFTISRDNAKNTVYLQMNSLKPEDTAVYYCAADLSGGPYLGGYDYWGQGTQVTVSS	high polyreactivity
QVQLVESGGGLVQAGGSLRLSCAASGITLRRNAMGWYRQAPGKERELVARISTTGGSTYYADSVKGRFTISRDNAKNTVYLQMNSLKPEDTAVYYCAARAPLGFWHYDYWGQGTQVTVSS	high polyreactivity
QVQLVESGGGLVQAGGSLRLSCAASGRTFTVYAMGWYRQAPGKERELVATISGSTGSTYYADSVKGRFTISRDNAKNTVYLQMNSLKPEDTAVYYCAARVRYRYLIGSGFDYWGQGTQVTVSS	low polyreactivity
QVQLVESGGGLVQAGGSLRLSCAASGRTFRTNAMGWYRQAPGKERELVAAITSDGTYYADSVKGRFTISRDNAKKTVYLQMNSLKPEDTAVYYCNVDDRETRDDYWGQGTQVTVSS	low polyreactivity
QVQLVESGGGLVQAGGSLRLSCAASGFTLYYYAMGWYRQAPGKERELVAAIRSGGRTYYADSVKGRFTISRDNAKNTVYLQMNSLKPEDTAVYYCAARYRVYRGSRGITDYGYWGQGTQVTVSS	high polyreactivity
QVQLVESGGGLVQAGGRLRLSCAASGYTFVVNAMGWYRQAPGKERELVAAITGGDSTNYADSVKGRFTISRDNATNTVYLQMNSLKPEDTAVYYCAKRDVLPFQTVTGSRNDYWGQGTQVTVSS	low polyreactivity
QVQLVESGGGLVQAGGSLRLSCAASGLIFSRYTMGWYRQAPGKERELVAAISKTGSSTYYADSVKGRFTISRDNAKNTVYLQMNSLKPEDTAVYYCAAETGTGETRYYRYWDYYYWGQGTQVTVSS	high polyreactivity
QVQLVESGGGLVQAGGSLRISCAASGITFLEYAMGWYRQAPGKERELVATINSGGSTNYADSVKGRFTISRDNAKNTVYLQMNSLKQEDNAVYYCSADYGSDYTKGDYWGQGTQVTVSS	low polyreactivity
QVQLVESGGGLVQPGGSLRISCAASGSTFEYYAMGWYRQAPGKERELVAAITGSGGSTNYADSVKGRFTISRDNAKNTVYLQMNSLKPEDTAVYYCAADVYDAGVRYDYWGQGTQVTVSS	high polyreactivity
QVQLVESGGGLVQAGGSLRLSCAASGSIFGSYTMGWYRPAPGKERELVAAITSGGGNTYYADSVKGRFTISRDNAKNTVYLQMNSLKPEDTAVYYCAARERYTGYGSWGQGTQVTVSS	high polyreactivity
QVQLVESGGGLVQAGGSLRLSWAASGSIFQYVYAMGWYRQAPGKERELVATITWSGGSTYYSDSVKGRFTISRDNAKNTVYLQMNSLKPEDTAVYYCAAESIYYPVAQYYYSFEYWGQGTQVTVSS	low polyreactivity
QVQLQESGGGLVQASGSLRLSCAASGNIFPDYVMGWYRLAPGKEREFVANITGGSTTNYADSVKGRFTISRDNAKNTVYLQMNSLKPEDTAVYYCAVNFGTVVLYLYWGQGTQVTVSS	high polyreactivity
QVQLVESGGGLVQAGGSLRLSCAASGSTFYTNAMGWYRQAPGKERELVAAISASVGSTYYADSVKGRFTISRDNAKNTVYLQMNSLKPEDTAVYYCAAQYTYLLFASLPDYDYWGQGTQVTVSS	low polyreactivity
QVQLVESGGGLVQAGGSLRLSCAASGFIFSNYAMGWYRQAPGKERELVAAISRSGGSTYYADSVKGRFTISRDNAKNTVYLQMNSLKPEDTAVYYCAARHAPILGDHGMKYWGQGTQVTVSS	high polyreactivity
QVQLQESGGGLVQAGGSLCLSCAASGTIFFDGDMGWYRQAPGKEREFVAAINPGGSAYNADSVKGRLPLAAITHTVYLQMNSLKPEDTAVYYCSAKLFDVYGYYYWGQGTHVTVSS	low polyreactivity
